In PMC2754608, “Toll-Like Receptor 4 Decoy, TOY, Attenuates Gram-Negative Bacterial Sepsis” (PLoS ONE, 2009):

B1: myeloid differentiation protein-2 (MD-2) (natural protein, human, UniProt Q9Y6Y9 19-160, looked up)
chain: QKQYWVCNSSDASISYTYCDKMQYPISINVNPCIELKRSKGLLHIFYIPRRDLKQLYFNLYITVNTMNLPKRKEVICRGSDDDYSFCRALKGETVNTTISFSFKGIKFSKGKYKCVVEAISGSPEEMLFCLEFVILHQPNSN
notes: also called hMD-2

Columns and labels:
[1] = target: T1, TLR4 full-length ectodomain fused to IgG-Fc (TFE) (human, UniProt O00206 27-631); test: SPR; BIAcore 3000; TFE, TOY3 or TOY8 (1 µg) amine-coupled (NHS/EDC) on a CM5 chip at about 2,000 RU; BSA on a control portion of the chip; recombinant MD-2 flowed over; nonlinear curve fitting with BIAEVALUATION; settings: both partners purified
T1 construct: Toll-like receptor 4 (TLR4), human, full-length ectodomain, amino acid residues 27-631; Disulfide-linked dimer through the Fc domain (non-reducing SDS-PAGE); N-glycosylated; source: recombinant CHO cells (dhfr-deficient, MTX amplification), secreted, purified (Protein-A sepharose); not shown: Fc (human IgG1), C-terminal, kept

[2] = target: B1; test: as above; settings: both partners purified

Kd [1] [nM]	Kd [2] [nM]	Binder
~81		B1
	~76	TLR4 decoy receptor-3 (TOY3) (Fc fusion, N-glycosylated (CHO). TLR4 27-227 limits are printed; VLRB.61 fragment limits are only in a figure, so taken from the TV3 hybrid crystal construct (PDB 2Z62, recalled from memory). Hagfish species …) EPCVEVVPNITYQCMELNFYKIPDNLPFSTKNLDLSFNPLRHLGSYSFFSFPELQVLDLSRCEIQTIEDGAYQSLSHLSTLILTGNPIQSLALGAFSGLSSLQKLVAVETNLASLENFPIGHLKTLKELNVAHNLIQSFKLPEYFSNLTNLEHLDLSSNKIQSIYCTDLRVLHQMPLLNLSLDLSLNPMNFIQPGAFKEIRLKELALDTNQLKSVPDGIFDRLTSLQKIWLHTNPWDCSCPRIDYLSRWLNKNSQKEQGSAKCSGSGKPVRSIICP
	~56	TLR4 decoy receptor-8 (TOY8) (Fc fusion, N-glycosylated (CHO). TLR4 27-527 limits are printed; VLRB.61 fragment limits are only in a figure, so taken from the TV8 hybrid crystal construct (PDB 2Z63, recalled from memory). Hagfish species …) EPCVEVVPNITYQCMELNFYKIPDNLPFSTKNLDLSFNPLRHLGSYSFFSFPELQVLDLSRCEIQTIEDGAYQSLSHLSTLILTGNPIQSLALGAFSGLSSLQKLVAVETNLASLENFPIGHLKTLKELNVAHNLIQSFKLPEYFSNLTNLEHLDLSSNKIQSIYCTDLRVLHQMPLLNLSLDLSLNPMNFIQPGAFKEIRLHKLTLRNNFDSLNVMKTCIQGLAGLEVHRLVLGEFRNEGNLEKFDKSALEGLCNLTIEEFRLAYLDYYLDDIIDLFNCLTNVSSFSLVSVTIERVKDFSYNFGWQHLELVNCKFGQFPTLKLKSLKRLTFTSNKGGNAFSEVDLPSLEFLDLSRNGLSFKGCCSQSDFGTTSLKYLDLSFNGVITMSSNFLGLEQLEHLDFQHSNLKQMSEFSVFLSLRNLIYLDISHTHTRVAFNGIFNGLSSLEVLKMAGNSFQENFLPDIFTELRNLTFLDLSQCQLEQLSPTAFNSLSSLQVLNMASNQLKSVPDGIFDRLTSLQKIWLHTNPWDCSCPRIDYLSRWLNKNSQKEQGSAKCSGSGKPVRSIICP
